Reference: US20240010747A1, “ANTI-MRP4 (ENCODED BY ABCC4 GENE) ANTIBODIES AND USES THEREOF” (Kenjockety Biotechnology, Inc., priority 2020, published 2024)

T1: cynomolgus ABCC4 (cynomolgus, UniProt A0A2K5W0Z4 1-1325)
T1 construct: whole, on cells; Expressed on murine C6 cells stably transfected with cynomolgus ABCC4 cDNA with C-terminal FLAG tag; not shown: C-terminal fused FLAG tag
T1 sequence: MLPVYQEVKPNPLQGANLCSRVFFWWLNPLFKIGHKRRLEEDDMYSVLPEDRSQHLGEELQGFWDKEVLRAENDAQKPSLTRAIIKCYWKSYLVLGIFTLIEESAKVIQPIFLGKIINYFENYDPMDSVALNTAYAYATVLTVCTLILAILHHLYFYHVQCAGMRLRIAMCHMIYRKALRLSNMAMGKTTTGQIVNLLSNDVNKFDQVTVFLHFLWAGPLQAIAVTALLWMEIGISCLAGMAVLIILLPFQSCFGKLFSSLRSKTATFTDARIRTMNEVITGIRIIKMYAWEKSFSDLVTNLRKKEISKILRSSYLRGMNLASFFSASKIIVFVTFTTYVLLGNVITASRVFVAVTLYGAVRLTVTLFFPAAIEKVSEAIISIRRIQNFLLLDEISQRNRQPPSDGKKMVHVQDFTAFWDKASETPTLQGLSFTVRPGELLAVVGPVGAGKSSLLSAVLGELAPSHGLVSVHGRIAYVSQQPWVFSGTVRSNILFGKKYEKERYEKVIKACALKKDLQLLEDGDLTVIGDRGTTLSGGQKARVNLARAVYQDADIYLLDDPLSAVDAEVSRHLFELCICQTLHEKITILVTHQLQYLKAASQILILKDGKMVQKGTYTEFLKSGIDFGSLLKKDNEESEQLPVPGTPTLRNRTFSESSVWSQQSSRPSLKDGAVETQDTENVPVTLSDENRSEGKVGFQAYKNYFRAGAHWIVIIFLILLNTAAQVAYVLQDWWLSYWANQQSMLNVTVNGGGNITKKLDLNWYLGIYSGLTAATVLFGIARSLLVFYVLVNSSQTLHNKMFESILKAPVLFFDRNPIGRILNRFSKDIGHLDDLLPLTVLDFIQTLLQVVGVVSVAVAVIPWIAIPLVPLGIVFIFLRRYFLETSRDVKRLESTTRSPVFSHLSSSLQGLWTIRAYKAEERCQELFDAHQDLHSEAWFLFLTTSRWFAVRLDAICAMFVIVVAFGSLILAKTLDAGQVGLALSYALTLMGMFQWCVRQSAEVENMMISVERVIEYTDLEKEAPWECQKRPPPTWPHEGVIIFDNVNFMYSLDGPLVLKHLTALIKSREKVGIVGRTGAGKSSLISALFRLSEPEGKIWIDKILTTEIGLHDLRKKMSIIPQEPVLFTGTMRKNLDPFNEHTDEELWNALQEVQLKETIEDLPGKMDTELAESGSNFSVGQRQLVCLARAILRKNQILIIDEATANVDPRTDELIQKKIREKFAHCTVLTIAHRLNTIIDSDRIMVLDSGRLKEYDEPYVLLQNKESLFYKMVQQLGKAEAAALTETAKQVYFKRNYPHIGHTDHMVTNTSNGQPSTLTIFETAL

B1: C4.1148 (antibody, V domains shown)
VH: EVQLVESDGGLVQPGRSLKLSCAASGFTFSDYYMAWVRQAPPKGLEWVATISYDAFTTYYRDSVKGRFTISRDNAKTILFLQMDSLRSEDTATYYCIRLSTRYKGVMDAWGHGASVTVSS
VL: DIQMTQSPSNLAASPGESVSINCKASETIYKYLAWYQQKPGRTNKLLIYSGSTLQSGTPSRFSGSGSGTDFTLTIRNLEPEDFGRYYCQHHVEYPPTFGAGTKLELK
B2: C4.1059 (antibody, V domains shown)
VH: QVQLLQSGAALVKPGASVKMSCKPSGYTFTDYWVSWVKQSHGKSLEWIGEIYPNNGATNFNEKFKGKATLTVDKSTSTAYMELSRLTSEDSAIYYCPSRKYGYNWNFDYWGQGTMVTVSS
VL: DIVLTQSPALAVSLGQRATISCWASQSVSISRYNLMHWYQQKPGQQPKLLIYRASNLASGIPARFSGSGSGTDFTLTINPVQADDIATYYCQQSGESPWTFGGGTKLELK
B3: C4.1139 (antibody, V domains shown)
VH: EVQLVESDGGLVQPGRSLKLSCAASGFTFSDYYMAWVRQAPTKGLYWVASISYDGSTTYYRDSVKGRFTISRDNAKSTLYLQMGSLRSEDTATYYCARLSIRYKGVMDAWGRGASVTVSS
VL: DVVMTQSPSNLAASPGESVSINCKASKSIGKFLAWYQQKPGRPNKLLIYSGSTLQSGTPSRFSGSGSGTDFTLTIRNLEPGDFGLYYCQHHIEYPPTFGPGTKLELK

Each molecule was assayed against T1, cynomolgus ABCC4 (assay: FACS, different C6.cC4 cell line stably expressing cynomolgus ABCC4). Details: not given.
Method: Antibody binding to cells was evaluated by flow cytometry. Murine C6 cells stably transfected to express human or cynomolgus ABCC4 were washed once in flow cytometry buffer (PBS+2% FBS+0.02% sodium azide), resuspended at 2×10\hat{ }6 cells/mL in flow cytometry buffer, and dispensed into 96-well microtiter plates at 0.1 mL/well. Recombinant antibodies were added to cells at 5 ug/mL for initial binding confirmation, or serially diluted from 100 ug/mL in flow cytometry buffer. After incubating cells on ice for 30 min, cells were washed twice with flow cytometry buffer. Bound antibody was detected with PE-labeled F(ab′)₂ fragment goat anti-human IgG (Jackson ImmunoResearch) and evaluated on an Attune N×T flow cytometer. EC50 is calculated to be the concentration of antibody that gives half maximal response.

Molecule	binding result
B1	no binding (tested: Rmax (MFI) below background level)
B2	no binding (tested: Rmax (MFI) below background level)
B3	no binding (tested: Rmax (MFI) below background level)

The molecules below were run on cynomolgus ABCC4 (assay: Flow cytometry (FACS) binding to C6 cells stably transfected to express cynomolgus ABCC4 (different experiment, different C6.cC4 cell line, Table 4)). Details: different C6.cC4 cell line, C6 cells stably transfected to express cynomolgus ABCC4, FACS; Table 4.
Set-up: key to Cynomolgus ABCC4 binding: Negative (−)=Rmax (MFI) below background level; Positive (+)=MFI>3× background level
In short: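 Murine C6 cells stably expressing FLAG-tagged human or cynomolgus ABCC4 incubated 30 min on ice with antibodies, either 5 ug/mL or serially diluted from 100 ug/mL, in PBS+2% FBS+0.02% azide. Detection with PE anti-human IgG F(ab′)2 by flow cytometry; EC50 at half-maximal MFI; negative below background, positive >3× background.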

Molecule	Cynomolgus ABCC4 binding
B1	−
B2	−
B3	−
